Experiments:
[1] = molecular target: T1, human CD30 expressed on the cell surface (human, UniProt P28908 19-595); test: flow cytometry on CD30+ and CD30- cell lines
T1 construct: whole, on cells; also called huCD30; cell-surface expressed CD30
T1 sequence (looked up): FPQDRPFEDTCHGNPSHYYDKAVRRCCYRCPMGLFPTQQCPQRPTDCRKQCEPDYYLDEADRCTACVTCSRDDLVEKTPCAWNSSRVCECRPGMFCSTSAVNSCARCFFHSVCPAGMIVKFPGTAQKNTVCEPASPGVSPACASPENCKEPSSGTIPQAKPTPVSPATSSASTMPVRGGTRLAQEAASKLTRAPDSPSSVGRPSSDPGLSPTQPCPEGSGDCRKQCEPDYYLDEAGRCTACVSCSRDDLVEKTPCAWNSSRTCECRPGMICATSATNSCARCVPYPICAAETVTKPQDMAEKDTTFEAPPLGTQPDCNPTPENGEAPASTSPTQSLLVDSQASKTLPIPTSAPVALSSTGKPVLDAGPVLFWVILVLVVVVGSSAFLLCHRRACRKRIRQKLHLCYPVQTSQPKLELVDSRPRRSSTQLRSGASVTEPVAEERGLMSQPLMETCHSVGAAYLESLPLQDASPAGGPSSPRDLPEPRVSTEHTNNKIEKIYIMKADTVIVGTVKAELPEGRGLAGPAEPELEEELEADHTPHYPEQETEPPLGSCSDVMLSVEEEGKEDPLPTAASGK
Method: Flow cytometry analysis was preformed using purified antibody on CD30+ cell lines (SU-DHL-1, RPMI6666, […]) and a CD30− cell line (OCIAML2). A commercially available α-huCD30 antibody (clone BY88) and an isotype control were also tested.
We have employed hybridoma technology to generate novel murine anti-human CD30 mAbs. Mice were immunized and boosted with purified human GST-tagged CD30. Mouse spleen cells were then harvested and fused with myeloma cells to generate antibody secreting hybridoma. Hybridoma supernatants were screened for specificity to purified CD30 protein by ELISA, and GST specific clones were eliminated. […] Specific binding of our mAbs to cell-surface expressed CD30 was assessed by flow cytometry (FIG. 1) using 293T cells (CD30−), lentiviral transduced 293T cells expressing huCD30, and K562 cells which are naturally CD30+. The 293T (CD30−), 293T LV huCD30 (transduced with human CD30), SU-DHL-1 (lymphoma), RPMI.6666 (lymphoma) or K562 (CML) cell lines were incubated with each antibody in the form of unpurified hybridoma supernatant, and then incubated with an Alexa Fluor 647-labeled anti-mouse IgG antibody. Cell-associated fluorescence was determined by FACS.

[2] = molecular target: T1, human CD30 expressed on the cell surface; test: flow cytometry, purified antibody on cells with CD30 surface expression

Row | Binder | binding result [1] | binding result [2]
1 | 10C2 (antibody, V domains shown, Murine anti-human CD30 monoclonal antibody from a hybridoma, detected with anti-mouse IgG; also called monoclonal antibody 10C2; anti-CD30 mAb 10C2) VH: QVQLEQSGPVLVKPGASVKMSCKASGYTFTDYYMNWVKQSHGKSLEWIGVINPYNGGTSYNQKFKGKATLTVDKSSSTACMELNCLTSEDSAVYYCTLGAYWGQGTSVTVSS VL: not shown | binds | 
2 | 13H1 (antibody, V domains shown, Murine anti-human CD30 monoclonal antibody from a hybridoma, detected with anti-mouse IgG; also called monoclonal antibody 13H1) VH: QVQLQQSGTELVKPGASVKLSCKASGHTFTSYWMHWVKQRPGQGLEWIGNINPSNGGTNYNEKFKSKATLTVDKSSSTAYMQLSSLTSEDSAVYYCARRGYYGSSSYWSFDVWGTGTTVTVSS VL: DIVMTQTPKSMSMSVGERVTLSCKASENVGTYVSWYQQKPEQSPKVLIYGASNRFTGVPDRFTGSGSATDFTLTISSVQTEDLADYHCGQSYSYPLTFGAGTKLELK | binds | 
3 | 8D10 (antibody, V domains shown, Murine anti-human CD30 monoclonal antibody from a hybridoma, detected with anti-mouse IgG; also called monoclonal antibody 8D10; anti-CD30 mAb 8D10) VH: QVQLQESGTELVKPGASVKLSCKASGYTFTSYWMHWMKQRPGQGLEWIGNINPSNGGTNYNEKFKNKATLTVDKSSSTAYMQLSSLTSEDSAVYYCARRDYYYGSSYGFDVWGTGTTVTVSS VL: DIVMTQSPASQSASLGESVTITCLASQTIGTWLAWYQQKPGKSPQFLIYAATSLADGVPSRFSGSGSGTKFSFKISSLQAEDFVSYYCQQLYSTPFTFGGGTKLEIK | binds | 
4 | 15B8 (antibody, V domains shown, Murine anti-human CD30 monoclonal antibody from a hybridoma, detected with anti-mouse IgG; also called monoclonal antibody 15B8) VH: QVQLEQSGTELVKPGASVKLSCKASGYTFTSYWMHWVKQRPGQGLEWIGNINPSNGGTNYNEKFKSKATLTVDKSSSTAYMQLSSLTSEDSAIYYCARRNNYYASSPFAYWGQGTLVSVSA VL: DIVMTQTPASLSASVGETVTITCRASGNIHNYLAWYQQKQGKSPQLLVYNAKTLADGVPSRFSGSGSGTQYSLKINSLQPEDFGSYYCQHFWSTPFTFGSGTKLEIK |  | binds
5 | 12B1 (antibody, V domains shown, Murine anti-human CD30 monoclonal antibody from a hybridoma, detected with anti-mouse IgG; also called monoclonal antibody 12B1) VH: EVKLEESGTELVKPGASVKLSCKASGYTFTSYWMHWVKQRPGQGLEWIGNINPTNGGTNYNEKFKSKATLTVDKSSRTAYMQLSSLTSGDSAVYYCARRDFITTSGFAYWGQGTLVTVSA VL: DIVMTQTTASLSTSVGETVTITCRASGNLHSYLTWYQQKQGKSPQLLVYNAKTLADGVPSRFSGSGSGTQYSLKIDSLQPEDFGSYYCQHFWTTPFTFGSGTKLEIK | binds | 
